17 molecules from patent publication US20210388087A1 (Chugai, published 2021) can be followed below.

T1: Human CD3eg linker (human)
T1 construct: Single chain: epsilon and gamma subunits of human CD3 joined by a 29-mer linker, Flag-tag at the C-terminus; also called recombinant human CD3
T1 chain: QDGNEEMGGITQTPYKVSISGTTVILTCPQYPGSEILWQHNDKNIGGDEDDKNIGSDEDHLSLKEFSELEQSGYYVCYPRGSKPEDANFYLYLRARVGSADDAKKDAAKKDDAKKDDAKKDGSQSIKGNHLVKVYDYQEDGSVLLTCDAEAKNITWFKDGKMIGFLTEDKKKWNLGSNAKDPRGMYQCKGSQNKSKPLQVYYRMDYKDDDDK

B1: H183/L072 VH K52M (antibody, name in Kabat numbering, V domains shown)
VH: QVQLVESGGGLVQPGRSLRLSCAASGFTFSNAWMHWVRQAPGKGLEWVAQIMDKGNAYAAYYAPSVKGRFTISRDDSKNSIYLQMNSLKTEDTAVYYCHYVHYASASTVLPAFGVDAWGQGTTVTVSS
VL: DIVMTQSPLSLPVTPGEPASISCQASQELVHMNRNTYLHWYQQKPGQAPRLLIYKVSNRFPGVPDRFSGSGSGTDFTLKISRVEAEDVGVYYCAQGTSVPFTFGQGTKLEIK
B2: H183/L072 VH K52T (antibody, name in Kabat numbering, V domains shown)
VH: B1 VH with M52T
VL: B1 VL
B3: H183/L072 VH K52Y (antibody, name in Kabat numbering, V domains shown)
VH: B1 VH with M52Y
VL: B1 VL
B4: H183/L072 VH K52N (antibody, name in Kabat numbering, V domains shown)
VH: B1 VH with M52N
VL: B1 VL
B5: H183/L072 VH K52P (antibody, name in Kabat numbering, V domains shown)
VH: B1 VH with M52P
VL: B1 VL
B6: H183/L072 VH K52bH (antibody, name in Kabat numbering, V domains shown)
VH: B1 VH with M52K, K54H
VL: B1 VL
B7: H183/L072 VH K52bA (antibody, name in Kabat numbering, V domains shown)
VH: B1 VH with M52K, K54A
VL: B1 VL
B8: H183/L072 VH K52W (antibody, name in Kabat numbering, V domains shown)
VH: B1 VH with M52W
VL: B1 VL
B9: H183/L072 VH K52bF (antibody, name in Kabat numbering, V domains shown)
VH: B1 VH with M52K, K54F
VL: B1 VL
B10: H183/L072 VH K52V (antibody, name in Kabat numbering, V domains shown)
VH: B1 VH with M52V
VL: B1 VL
B11: H183/L072 VH K52bI (antibody, name in Kabat numbering, V domains shown)
VH: B1 VH with M52K, K54I
VL: B1 VL
B12: H183/L072 VH K52bE (antibody, name in Kabat numbering, V domains shown)
VH: B1 VH with M52K, K54E
VL: B1 VL
B13: H183/L072 VH K52Q (antibody, name in Kabat numbering, V domains shown)
VH: B1 VH with M52Q
VL: B1 VL
B14: H183/L072 VH K52bG (antibody, name in Kabat numbering, V domains shown)
VH: B1 VH with M52K, K54G
VL: B1 VL
B15: H183/L072 VH K52S (antibody, name in Kabat numbering, V domains shown)
VH: B1 VH with M52S
VL: B1 VL
B16: H183/L072 VH K52R (antibody, name in Kabat numbering, V domains shown)
VH: B1 VH with M52R
VL: B1 VL
B17: H183/L072 VH K52bD (antibody, name in Kabat numbering, V domains shown)
VH: B1 VH with M52K, K54D
VL: B1 VL

Changes are numbered by the printed parent chain. Names and notes keep the numbering of the source.

For the test, the target named is T1, Human CD3eg linker. Nature of the test: Biacore SPR, vs template H183/L072.
In the case of B1, the “fold change of affinity” value was determined as 0.6 fold.

B2: the “fold change of affinity” value was determined as 0.5 fold.

Consider B3, for which the “fold change of affinity” value is 0 fold.

As for B4, the “fold change of affinity” value was found to be 0 fold.

Consider B5, for which the “fold change of affinity” value is 0 fold.

Turning to B6, the “fold change of affinity” value worked out at 0.7 fold.

For B7, the “fold change of affinity” value stood at 0.7 fold.

In the case of B8, the “fold change of affinity” value was 0 fold.

As to B9, the “fold change of affinity” value stood at 0.4 fold.

In the case of B10, the “fold change of affinity” value was 0 fold.

Turning to B11, the “fold change of affinity” value came to 0.8 fold.

For B12, the “fold change of affinity” value was 0.5 fold.

Regarding B13, the “fold change of affinity” value was 0.3 fold.

On to B14, for which the “fold change of affinity” value was 0.8 fold.

As for B15, the “fold change of affinity” value was 0 fold.

On to B16, for which the “fold change of affinity” value amounted to 0.8 fold.

On to B17, for which the “fold change of affinity” value was found to be 0 fold.
